One test concerns the target T1, human GIP receptor (human, UniProt P48546 22-466).
T1 construct: whole, on cells; also called hGIPR; hGIP-R
T1 sequence (looked up): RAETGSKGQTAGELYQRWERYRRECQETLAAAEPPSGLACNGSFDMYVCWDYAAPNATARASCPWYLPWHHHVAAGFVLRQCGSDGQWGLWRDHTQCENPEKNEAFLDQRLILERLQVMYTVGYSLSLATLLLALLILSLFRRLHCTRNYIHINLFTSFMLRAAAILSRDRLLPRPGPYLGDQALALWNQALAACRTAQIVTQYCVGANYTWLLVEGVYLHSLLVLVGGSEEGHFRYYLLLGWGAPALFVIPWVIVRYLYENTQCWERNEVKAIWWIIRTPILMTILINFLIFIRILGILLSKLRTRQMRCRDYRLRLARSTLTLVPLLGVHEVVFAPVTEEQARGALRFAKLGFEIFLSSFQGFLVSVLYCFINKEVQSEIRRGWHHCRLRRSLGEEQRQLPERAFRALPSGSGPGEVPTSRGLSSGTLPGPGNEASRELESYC
The test is described as follows: [125I]-GIP competition SPA, hGIPR membranes. The procedure: The binding buffer contains 25 mM HEPES, pH 7.4, 2.5 mM CaCl₂, 1 mM MgCl₂, 0.1% (w/v) bacitracin, 0.003% (w/v) TWEEN®-20, and Roche Complete™ Protease Inhibitors without EDTA. […] Plates are sealed and mixed on a plate shaker (setting 6) for 1 minute and read with a PerkinElmer Trilux MicroBeta® scintillation counter after 2.5 to 12 hours of incubation/settling time at room temperature.
(§1) Data are analyzed using four-parameter (curve maximum, curve minimum, IC₅₀, Hill slope) nonlinear regression routines (Genedata Screener, version 12.0.4, Genedata AG, Basal, Switzerland). […] Values for Kᵢ are reported as the geometric mean, with error expressed as the standard error of the mean (SEM) and n is equal to the number of independent replicates (determined in assays performed on different days). Geometric Means are calculated as follows: […]

Another test addresses T2, human GLP-1 receptor (human, UniProt P43220 24-463).
T2 construct: whole, on cells; also called hGLP-1R; hGLP1R
The test is described as follows: [125I]-GLP-1 competition SPA, hGLP-1R membranes. The procedure:
The binding buffer contains 25 mM HEPES, pH 7.4, 2.5 mM CaCl₂, 1 mM MgCl₂, 0.1% (w/v) bacitracin, 0.003% (w/v) TWEEN®-20, and Roche Complete™ Protease Inhibitors without EDTA.
as §1

The record followed here is US20200024322A1 (Eli Lilly, published 2020).

Numbered stars: 1 amine (or outer) side, 2 acyl side, 3 side chain; on linkers, the order of the positions; unused ones are H or OH. Square brackets hold non-standard residues; d marks the D form. Side chains are listed from the residue outwards. Ends that are not written are not given here. * marks the point of attachment. C20 diacid = O=C(O)CCCCCCCCCCCCCCCCCCC(=O)*; C18 diacid = O=C(O)CCCCCCCCCCCCCCCCC(=O)*; γGlu = O=C(O)[C@H](CCC(=O)[*:2])N[*:1]; AEEA = NCCOCCOCC(=O)O; Aib = CC(C)(N)C(=O)O

B1: Example 289 (peptide)
peptide: YXEGTFTSDYSIXLDKKAQXEFIEYLIAGGPSSGAPPPS
modifications: Aib2; αMeL13; K17((2-[2-(2-Amino-ethoxy)-ethoxy]-acetyl)2-(γ-Glu)-CO-(CH2)18-CO2H); Aib20; C-terminal NH2
notes: also called GG-731
On to B1, for which the Ki is 0.0457 nM in the test with human GIP receptor and 2.63 nM with human GLP-1 receptor.

B2: Example 291 (peptide)
peptide: XXEGTFTSDYSIXLDXKAQXAFIXYLIAGGPSSGAPPPS
modifications: D-Tyr1; Aib2; αMeL13; Orn16; K17((2-[2-(2-Amino-ethoxy)-ethoxy]-acetyl)2-(γ-Glu)-CO-(CH2)18-CO2H); Aib20; D-Glu24; C-terminal NH2
For the molecule B2, the values for the Ki with human GIP receptor and in the test with human GLP-1 receptor were 0.129 nM and 3.16 nM, respectively.

B3: Example 362 (peptide)
peptide: XXEGTFTSDYSIXLDXKAQXAFVXYLIAGGPSSGAPPPS
modifications: D-Tyr1; Aib2; αMeL13; Orn16; K17((2-[2-(2-Amino-ethoxy)-ethoxy]-acetyl)2-(γ-Glu)-CO-(CH2)18-CO2H); Aib20; D-Glu24; C-terminal NH2
As for B3, the Ki with human GIP receptor turned out to be 0.337 nM; with human GLP-1 receptor it was 6.95 nM.

B4: Example 364 (peptide)
peptide: XXEGTFTSDYSIXLDXKAQXAFVXYLIAGGPSSGAPPPS
modifications: not fully specified; D-Tyr1; Aib2; αMeL13; Orn16; K17((2-[2-(2-Amino-ethoxy)-ethoxy]-acetyl)2-(γ-Glu)-CO-(CH2)16-CO2H); Aib20; D-Glu24; C-terminal NH2
In the case of B4, the values for the Ki with human GIP receptor and in the test with human GLP-1 receptor were 0.672 nM and 17.2 nM, respectively.

B5: Example 331 (peptide)
peptide: YXEGTFTSDYSIXLDEKAQXEFIEYLIAGGPSSGAPPPS
modifications: Aib2; αMeL13; K17((2-[2-(2-Amino-ethoxy)-ethoxy]-acetyl)2-(γ-Glu)-CO-(CH2)18-CO2H); Aib20; C-terminal NH2
Consider B5, for which the Ki was found to be 0.0851 nM in the test with human GIP receptor and 11.4 nM with human GLP-1 receptor.

B6: Example 328 (peptide)
peptide: FXEGTFTSDYSIXLDKKAQXAFIEYLIEAGPSSGAPPPS
modifications: Aib2; αMeL13; K17((2-[2-(2-Amino-ethoxy)-ethoxy]-acetyl)2-(γ-Glu)-CO-(CH2)16-CO2H); Aib20; C-terminal NH2
B6: the Ki with human GIP receptor was determined as 0.136 nM; in the test with human GLP-1 receptor, 3.98 nM.

B7: Example 342 (peptide)
peptide: XXEGTFTSDYSIXLDEKAQXEFIEYLIAGGPSSGAPPPS
modifications: D-Tyr1; Aib2; αMeL13; K17((2-[2-(2-Amino-ethoxy)-ethoxy]-acetyl)2-(γ-Glu)-CO-(CH2)18-CO2H); Aib20; C-terminal NH2
With B7, the Ki stood at 0.129 nM with human GIP receptor and 15.4 nM in the test with human GLP-1 receptor.

B8: Example 338 (peptide)
peptide: FXEGTFTSDYSIXLDKKAQXEFIEYLIAGGPSSGAPPPS
modifications: Aib2; αMeL13; K17((2-[2-(2-Amino-ethoxy)-ethoxy]-acetyl)2-(γ-Glu)-CO-(CH2)18-CO2H); Aib20; C-terminal NH2
Turning to B8, the figures for the Ki with human GIP receptor and with human GLP-1 receptor were 0.0831 nM and 3.23 nM, respectively.

B9: Example 357 (peptide)
peptide: XXEGTFTSDYSIXLDXKAQXAFIXYLIEGGPSSGAPPPS
modifications: D-Tyr1; Aib2; αMeL13; Orn16; K17((2-[2-(2-Amino-ethoxy)-ethoxy]-acetyl)2-(γ-Glu)-CO-(CH2)18-CO2H); Aib20; D-Glu24; C-terminal NH2
As for B9, the figures for the Ki with human GIP receptor and with human GLP-1 receptor were 0.316 nM and 7.02 nM, respectively.

B10: Example 354 (peptide)
peptide: XXEGTFTSDYSIXLDXKAQXEFIXYLIAGGPSSGAPPPS
modifications: D-Tyr1; Aib2; αMeL13; Orn16; K17((2-[2-(2-Amino-ethoxy)-ethoxy]-acetyl)2-(γ-Glu)-CO-(CH2)18-CO2H); Aib20; D-Glu24; C-terminal NH2
Turning to B10, the Ki in the test with human GIP receptor is 0.175 nM; with human GLP-1 receptor it was 7.85 nM.

B11: Example 344 (peptide)
peptide: YXEGTFTSDYSIXLDEKAQXDFIEYLIAGGPSSGAPPPS
modifications: Aib2; αMeL13; K17((2-[2-(2-Amino-ethoxy)-ethoxy]-acetyl)2-(γ-Glu)-CO-(CH2)18-CO2H); Aib20; C-terminal NH2
As for B11, the Ki in the test with human GIP receptor turned out to be 0.0507 nM; in the test with human GLP-1 receptor, 14.8 nM.

B12: Example 319 (peptide)
peptide: Y[Aib]EGTFTSDYSILLDKK([AEEA-AEEA-γGlu-C20 diacid])AQ[Aib]EFIEYLIAGGPSSGAPPPS-NH2
modifications: N-terminus assumed
SMILES: CC[C@H](C)[C@H](NC(=O)[C@H](CC(C)C)NC(=O)[C@H](Cc1ccc(O)cc1)NC(=O)[C@H](CCC(=O)O)NC(=O)[C@@H](NC(=O)[C@H](Cc1ccccc1)NC(=O)[C@H](CCC(=O)O)NC(=O)C(C)(C)NC(=O)[C@H](CCC(N)=O)NC(=O)[C@H](C)NC(=O)[C@H](CCCCNC(=O)COCCOCCNC(=O)COCCOCCNC(=O)CC[C@H](NC(=O)CCCCCCCCCCCCCCCCCCC(=O)O)C(=O)O)NC(=O)[C@H](CCCCN)NC(=O)[C@H](CC(=O)O)NC(=O)[C@H](CC(C)C)NC(=O)[C@H](CC(C)C)NC(=O)[C@@H](NC(=O)[C@H](CO)NC(=O)[C@H](Cc1ccc(O)cc1)NC(=O)[C@H](CC(=O)O)NC(=O)[C@H](CO)NC(=O)[C@@H](NC(=O)[C@H](Cc1ccccc1)NC(=O)[C@@H](NC(=O)CNC(=O)[C@H](CCC(=O)O)NC(=O)C(C)(C)NC(=O)[C@@H](N)Cc1ccc(O)cc1)[C@@H](C)O)[C@@H](C)O)[C@@H](C)CC)[C@@H](C)CC)C(=O)N[C@@H](C)C(=O)NCC(=O)NCC(=O)N1CCC[C@H]1C(=O)N[C@@H](CO)C(=O)N[C@@H](CO)C(=O)NCC(=O)N[C@@H](C)C(=O)N1CCC[C@H]1C(=O)N1CCC[C@H]1C(=O)N1CCC[C@H]1C(=O)N[C@@H](CO)C(N)=O
As for B12, the figures for the Ki with human GIP receptor and in the test with human GLP-1 receptor were 0.0349 nM and 3.61 nM, respectively.

B13: Example 269 (peptide)
peptide: Y[Aib]EGTFTSDYSILLDEK([AEEA-AEEA-γGlu-C18 diacid])AQ[Aib]AFIEYLIEGG-NH2
modifications: N-terminus assumed
SMILES: CC[C@H](C)[C@H](NC(=O)[C@H](CC(C)C)NC(=O)[C@H](Cc1ccc(O)cc1)NC(=O)[C@H](CCC(=O)O)NC(=O)[C@@H](NC(=O)[C@H](Cc1ccccc1)NC(=O)[C@H](C)NC(=O)C(C)(C)NC(=O)[C@H](CCC(N)=O)NC(=O)[C@H](C)NC(=O)[C@H](CCCCNC(=O)COCCOCCNC(=O)COCCOCCNC(=O)CC[C@H](NC(=O)CCCCCCCCCCCCCCCCC(=O)O)C(=O)O)NC(=O)[C@H](CCC(=O)O)NC(=O)[C@H](CC(=O)O)NC(=O)[C@H](CC(C)C)NC(=O)[C@H](CC(C)C)NC(=O)[C@@H](NC(=O)[C@H](CO)NC(=O)[C@H](Cc1ccc(O)cc1)NC(=O)[C@H](CC(=O)O)NC(=O)[C@H](CO)NC(=O)[C@@H](NC(=O)[C@H](Cc1ccccc1)NC(=O)[C@@H](NC(=O)CNC(=O)[C@H](CCC(=O)O)NC(=O)C(C)(C)NC(=O)[C@@H](N)Cc1ccc(O)cc1)[C@@H](C)O)[C@@H](C)O)[C@@H](C)CC)[C@@H](C)CC)C(=O)N[C@@H](CCC(=O)O)C(=O)NCC(=O)NCC(N)=O
For B13, the Ki turned out to be 0.152 nM with human GIP receptor and 7.1 nM with human GLP-1 receptor.

B14: Example 271 (peptide)
peptide: Y[Aib]EGTFTSDYSILLDKK([AEEA-AEEA-γGlu-C18 diacid])AQ[Aib]EFIEYLIEGG-NH2
modifications: N-terminus assumed
SMILES: CC[C@H](C)[C@H](NC(=O)[C@H](CC(C)C)NC(=O)[C@H](Cc1ccc(O)cc1)NC(=O)[C@H](CCC(=O)O)NC(=O)[C@@H](NC(=O)[C@H](Cc1ccccc1)NC(=O)[C@H](CCC(=O)O)NC(=O)C(C)(C)NC(=O)[C@H](CCC(N)=O)NC(=O)[C@H](C)NC(=O)[C@H](CCCCNC(=O)COCCOCCNC(=O)COCCOCCNC(=O)CC[C@H](NC(=O)CCCCCCCCCCCCCCCCC(=O)O)C(=O)O)NC(=O)[C@H](CCCCN)NC(=O)[C@H](CC(=O)O)NC(=O)[C@H](CC(C)C)NC(=O)[C@H](CC(C)C)NC(=O)[C@@H](NC(=O)[C@H](CO)NC(=O)[C@H](Cc1ccc(O)cc1)NC(=O)[C@H](CC(=O)O)NC(=O)[C@H](CO)NC(=O)[C@@H](NC(=O)[C@H](Cc1ccccc1)NC(=O)[C@@H](NC(=O)CNC(=O)[C@H](CCC(=O)O)NC(=O)C(C)(C)NC(=O)[C@@H](N)Cc1ccc(O)cc1)[C@@H](C)O)[C@@H](C)O)[C@@H](C)CC)[C@@H](C)CC)C(=O)N[C@@H](CCC(=O)O)C(=O)NCC(=O)NCC(N)=O
In the case of B14, the figures for the Ki in the test with human GIP receptor and with human GLP-1 receptor were 0.107 nM and 5.09 nM, respectively.

B15: Example 297 (peptide)
peptide: Y[Aib]EGTFTSDYSILLDKK([AEEA-AEEA-γGlu-C18 diacid])AQ[Aib]EFIEYLIAGG-NH2
modifications: N-terminus assumed
SMILES: CC[C@H](C)[C@H](NC(=O)[C@H](CC(C)C)NC(=O)[C@H](Cc1ccc(O)cc1)NC(=O)[C@H](CCC(=O)O)NC(=O)[C@@H](NC(=O)[C@H](Cc1ccccc1)NC(=O)[C@H](CCC(=O)O)NC(=O)C(C)(C)NC(=O)[C@H](CCC(N)=O)NC(=O)[C@H](C)NC(=O)[C@H](CCCCNC(=O)COCCOCCNC(=O)COCCOCCNC(=O)CC[C@H](NC(=O)CCCCCCCCCCCCCCCCC(=O)O)C(=O)O)NC(=O)[C@H](CCCCN)NC(=O)[C@H](CC(=O)O)NC(=O)[C@H](CC(C)C)NC(=O)[C@H](CC(C)C)NC(=O)[C@@H](NC(=O)[C@H](CO)NC(=O)[C@H](Cc1ccc(O)cc1)NC(=O)[C@H](CC(=O)O)NC(=O)[C@H](CO)NC(=O)[C@@H](NC(=O)[C@H](Cc1ccccc1)NC(=O)[C@@H](NC(=O)CNC(=O)[C@H](CCC(=O)O)NC(=O)C(C)(C)NC(=O)[C@@H](N)Cc1ccc(O)cc1)[C@@H](C)O)[C@@H](C)O)[C@@H](C)CC)[C@@H](C)CC)C(=O)N[C@@H](C)C(=O)NCC(=O)NCC(N)=O
With B15, the figures for the Ki in the test with human GIP receptor and with human GLP-1 receptor were 0.0958 nM and 2.98 nM, respectively.
